The results in this text go back to patent publication US9074002B2, “PTP1B inhibitors” (Cold Spring Harbor Laboratory, priority 2009, dated 2015).

T1: PTP1B-OX (Homo sapiens, UniProt P18031)
T1 construct: made in house; host or cells: E. coli BL21 (pET19b)
T1 sequence (P18031 3-277): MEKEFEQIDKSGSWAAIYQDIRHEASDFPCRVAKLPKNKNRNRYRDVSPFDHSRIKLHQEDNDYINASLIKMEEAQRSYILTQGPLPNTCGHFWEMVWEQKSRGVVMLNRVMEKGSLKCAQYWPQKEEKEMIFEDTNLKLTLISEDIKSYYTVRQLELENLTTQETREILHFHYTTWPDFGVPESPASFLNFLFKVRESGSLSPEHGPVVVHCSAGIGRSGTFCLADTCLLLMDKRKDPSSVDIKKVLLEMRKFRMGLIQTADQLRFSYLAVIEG

T2: PTP1B under reducing condition (Homo sapiens, UniProt P18031)
T2 construct: made in house; host or cells: E. coli BL21 (pET19b)
T2 sequence (P18031 3-277 limits assumed): T1 sequence (P18031 3-277)

T3: endogenous PTP1B-OX (Homo sapiens, UniProt P18031)
T3 construct: endogenous in cells; host or cells: 293T cells (transfected only with the scFv intrabody)
T3 sequence (P18031 1-435): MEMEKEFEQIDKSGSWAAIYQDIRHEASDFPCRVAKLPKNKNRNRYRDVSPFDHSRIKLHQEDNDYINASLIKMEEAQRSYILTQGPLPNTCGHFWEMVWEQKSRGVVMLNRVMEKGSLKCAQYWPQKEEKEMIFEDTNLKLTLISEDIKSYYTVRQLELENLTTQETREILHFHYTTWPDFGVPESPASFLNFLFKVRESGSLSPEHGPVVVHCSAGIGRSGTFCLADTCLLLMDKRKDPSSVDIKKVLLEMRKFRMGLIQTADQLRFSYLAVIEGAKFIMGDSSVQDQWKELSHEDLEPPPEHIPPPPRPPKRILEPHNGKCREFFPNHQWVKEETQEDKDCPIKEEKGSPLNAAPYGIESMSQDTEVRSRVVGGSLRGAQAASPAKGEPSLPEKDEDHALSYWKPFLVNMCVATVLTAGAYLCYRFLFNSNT

B1: scFv24: scFv, SEQ ID NO: 57 (protein)
scFv: MKKTAIAIAVALAGFATVAQAAVSASPGDTVKITCSGGNSSYGYGWYQQKSPGSAPVSVIYYNDERPSDIPSRFSGSASGSTATLTITGVQADDEAVYYCGNADSSTYAGIFGAGTTLTVLGQSSRSSAVTLDESGGGLQTPGGGLSLVCKASGFDFSTNAMGWVRQAPGKGLEWVAGISGSGSSTWYATAVKGRATISRDNGQSTVRLQLNNLRAEDTGTYYCTKYVGDYYWYIDAGSIDAWGHGTEVIVSSTSGQAGQHHHHHHGAYPYDVPDYAS
B2: scFv28: scFv, truncated sequence, SEQ ID NO: 61 (protein)
scFv: MKKTAIAIAVALAGFATVAQAAVIYSNDERPSDIPSRFSGSTSGSTSTLTITGVQADDEAVYFCGSADSSTYAGIFGAGTTLTVLGQSSRSSAVTLDESGGGLQTPGGALSLVCKASGFTFSSFNMFWVRQAPGRGLEFVAGITSSGGSTYYGTAVKGRATISRDNGQSTVRMQLNNLRAEDTGTYFCARGAYDYYFYWNYAGTIDAWGHGTEVIVSSTSGQAGQHHHHHHGAYPYDVPDYAS
B3: scFv21: scFv, SEQ ID NO: 54 (protein)
scFv: MKKTAIAIAVALAGFATVAQAALTQPSSVSANPGGTVKITCSGSSGSYYGWYQQKSPGSAPVTVIYDNDKRPSDVPSRFSGSKSGPTATLTITGVQAEDEAVYFCGSRDNSYVGIFGAGTTLTVLGQSSRSSAVTLDESGGGLQTPGGALSLVCKASGFTFSSYDMFWVRQAPGKGLEFVAQINSAGSYTNYGSAVKGRATISRDDGQSTVRLQLNNLRAEDTGIYFCAKSASGYYYSGSDAGDIDAWGHGTEVIVSSTSGQAGQHHHHHHGAYPYDVPDYAS
B4: scFv105: scFv, SEQ ID NO: 132 (protein)
scFv: MKKTAIAIAVALAGFATVAQAALTQPSSVSANPGEAVKITCSGSSGSYGWYQQKSPGSAPVTVIYYNDKRPSDIPSRFSGSTSGSTSTLTITGVQAEDEAVYFCGGYDSNYLGIFGAGTTLTVLGQSSRSSAVTLDESGGGLQTPRGALSLVCKASGFTFSSYSMAWVRQAPGKGLEFVAGIQNDGSITDYGSAVDGRATISRDDGQSTVRLQLNNLRTEDTATYYCAKTTVADGVIGAYGIDAWGHGTEVIVSSTSGQAGQHHHHHHGAYPYDVPDYAS
B5: scFv118: scFv, SEQ ID NO: 142 and 166 (protein)
scFv: MKKTAIAIAVALAGFATVAQAALTQPSSVSANLGGTVEITCSGGSGSYGWYQQKSPGGAPVTVIYYNDKRPSDIPSRFSGSKSGSTATLTITGVQVEDEAVYYCGSYDSSYVGIFGVGTTLTVLGQSSRSSAVTLDESGGGLQTPRGALSLVCKASGFTFSSYSMAWVRQAPGKGLEFVAGIQNDGSITDYGSAVDGRATISRDDGQSTVRLQLNNLRTEDTATYYCAKTTVADGVIGAYGIDAWGHGTEVIVSSTSGQAGQHHHHHHGAYPYDVPDYAS
B6: scFv61: scFv, SEQ ID NO: 94 and 164 (protein)
scFv: MKKTAIAIAVALAGFATVAQAALTQPSSVSANPGETVKITCSGGGSYAGSYYYGWYQQKAPGSAPVTLIYDNTNRPSNIPSRFSGSLSGSTGTLTITGVRAEDEAVYYCGSFDSSTDGGYAAIFGAGTTLTVLGQSSRSSAVTLDESGGGLQTPGGGLSLVCKASEFTFSSYAMEWVRQAPGKGLEWVAYINSDGSSTWYAPAVKGRATISRDNGQSTVRLQLNSLRAEDTATYYCTRGSGGENIDTWGHGTEVIVSSTSGQAGQHHHHHHGAYPYDVPDYAS
B7: scFv62: scFv, SEQ ID NO: 95 and 165 (protein)
scFv: MKKTAIAIAVALAGFATVAQAALTQPSSVSANPGGTVKITCSGSSSAYGYGWYQQKSPGSAPVTVIYNNNKRPSNIPSRFSGSKSGSTGTLTITGVQAEDEAVYFCGSEDSSTDAIFGAGTTLTVLGQSSRSSAVTLDESGGGLQTPGGALSLVCKASGFTFSSYDMGWVRQAPGKGLEYVAGITNDGRYASYGSAVDGRATISRDNGQSTVRLQLNNLRAEDTGTYYCARDDGSGWTGNTIDTWGHGTEVIVSSTSGQAGQHHHHHHGAYPYDVPDYAS

One assay concerns the target T1, PTP1B-OX. The assay is described as follows: In vitro binding assay, purified recombinant PTP1B (37 kDa) and purified scFv, Ni-NTA pull down. The following applies: purified proteins, scFv in molar excess, 2 hours at 4° C.; FIG. 9. As to the method: (§1) They established conditions in which PTP1B is reversibly oxidized by H2O2 in solution (FIG. 8). An artificial protein substrate RCML, in which tyrosine was phosphorylated with ^32P using recombinant GST-FER kinase was used in this assay to measure the phosphatase activity. Recombinant PTP (37 kDa) was incubated with increasing concentration (50 μM to 100 mM) of H2O2. A quick buffer exchange was done to remove the H2O2 and reducing agent (TCEP) was added to reactivate the enzyme.
(§2) In the in vitro binding assay, purified PTP was reversibly oxidized with […] followed by a quick buffer exchange to remove H2O2 (FIG. 8). Purified scFv was incubated in molar excess with PTP1B-OX or with PTP under reducing condition (with 2 mM TCEP) in binding buffer (20 mM HEPES, pH 7.4, 300 mM NaCl, 0.05% BSA, 0.05% Tween-20 and 10 mM imidazole) for 2 hours at 4° C. Ni-NTA agarose was added and incubated for one hour at 4° C. Protein complex bound to Ni-NTA agarose beads was pulled down and washed (three times, 5 minutes each, at 4° C.) with binding buffer containing 20 mM imidazole to reduce non-specific binding to the beads. The protein complex was eluted from the Ni-NTA agarose beads with 500 mM imidazole (in binding buffer, pH 7.4) for 15 minutes at 4° C. with gentle shaking. The complex was separated by SDS-PAGE and PTP1B was detected with anti-PTP1B antibody (FG6) and scFv was detected with anti-HA antibody [anti-HA (3F10)-HRP, Roche] by immunoblotting. Eight different scFvs (scFvs 20, 21, 24, 28, 45, 48, 57, and 105), expressed and purified from bacterial cultures were tested by this in vitro binding experiment.
As to B1, the “binding to PTP1B-OX in vitro” value is listed as “no significant binding”. B2: the “binding to PTP1B-OX in vitro” value is on record as “no significant binding”. As to B3, the “binding to PTP1B-OX in vitro” value is recorded as “no significant binding”.

Regarding B4, the “binding to PTP1B-OX in vitro” value is “no significant binding”.

Another assay addresses T2, PTP1B under reducing condition. The assay is described as follows: In vitro binding assay, purified recombinant PTP1B (37 kDa) and purified scFv, Ni-NTA pull down, reducing condition. The following applies: with 2 mM TCEP; FIG. 9. As to the method:
as §1, §2
B1: the “binding to PTP1B under reducing condition in vitro” value is recorded as “no significant binding”. B2: the “binding to PTP1B under reducing condition in vitro” value is listed as “no significant binding”. Turning to B3, the “binding to PTP1B under reducing condition in vitro” value is given as “no significant binding”.

As to B4, the “binding to PTP1B under reducing condition in vitro” value was “no significant binding”.

The target of a further assay is T3, endogenous PTP1B-OX. Description: Intrabody interaction in 293T cells treated with H2O2 (Ni-NTA pull down / anti-PTP1B immunoprecipitation). The assay is classed as cell-based. The following applies: 1 mM H2O2 5 minutes, FIGS. 11, 12. As to the method:
One of the positive candidate scFvs (scFv45) was cloned in pcDNA3.2/V5-GW/D-TOPO expression vector and transiently expressed in mammalian cells as stable intracellular antibody (aka intrabody) (FIG. 10). To detect PTP1B-OX and scFv45 interaction in mammalian cells, scFv45 was overexpressed in 293T cells as described herein (See Example 4) and 48 hours post transfection the cells were serum-starved for 16 hours in growth medium (DMEM, low glucose) without serum (FBS), then incubated with 1 mM H2O2 (in growth medium without serum) for 5 minutes at 37° C. or treated with 20 mM NAC (in growth medium without serum) for 1 hour at 37° C. Cells treated with H2O2 were washed twice with cold (4° C.) PBS and lysed in lysis buffer (25 mM HEPES, pH 7.4, 150 mM NaCl, 0.25% Deoxychloate, 1% TritonX-100, 25 mM NaF, 10 mM MgCl2, 1 mM EDTA, 10% Glycerol, 0.5 mM PMSF, 10 mM Benzamidine, protease inhibitor cocktail). Cells treated with NAC were lysed with lysis buffer containing 2 mM TCEP to ensure a post-lysis reducing environment. Interaction between PTP1B and intrabody45 were tested by pulling down the protein complex from 1 mg of total cell lysate with Ni-NTA agarose or by immunoprecipitating PTP with anti-PTP1B (FG6). For the pull down experiment, Ni-NTA agarose beads were incubated with the lysates (both oxidized and reduced) at 4° C. Protein complex bound to the Ni-NTA agarose beads was pulled down and washed three times; first with lysis buffer containing 20 mM imidazole followed by two more washes with wash buffer (PBS, pH 7.4, 20 mM imidazole, 0.05% BSA, 0.05% Tween-20 and protease inhibitors). Applicant used 20 mM imidazole in the wash buffer to reduce the non-specific binding of proteins with the Ni-NTA agarose beads. The complex was eluted with wash buffer containing 500 mM imidazole with gentle shaking at 4° C. and the eluate was mixed with SDS sample buffer with DTT. For the immunoprecipitation experiments, 1 mg of total cell lystates (both oxidized and reduced) was incubated with anti-PTP1B antibody (FG6) at 4° C. The interacting protein complex was immunoprecipitated after incubating the lysate-antibody mixture with protein A/G Sepharose at 4° C. After immunoprecipitation, Sepharose beads were washed three times; first with lysis buffer followed by two more washes with wash buffer (PBS, pH 7.4, 0.05% BSA, 0.05% Tween-20 and protease inhibitors). The Sepharose beads were then heated at 90° C. in 2×SDS sample buffer with DTT. Proteins from the pulled down or immunoprecipitated complex were separated by SDS-PAGE. PTP was detected with anti-PTP1B antibody (FG6) and the intrabodies were detected with anti-HA (3F10)-HRP antibody [anti-HA (3F10)-HRP, Roche] by immunoblotting.
In the initial in vitro phosphatase screening assay using reversibly oxidized (with H2O2) recombinant PTP1B, Applicant found four different PTP1B-OX specific scFvs (scFv45, scFv57, scFv64 and scFv106) from the initial pool of 12 different scFvs. […] Applicant has also shown that scFv45, expressed as an intrabody in mammalian cells, can bind to endogenous PTP1B-OX but not endogenous PTP under reducing conditions. Further assessment was carried out to identify additional PTP1B-OX-specific intrabodies. Additional scFvs have been subcloned in pcDNA3.2/V5-GW/D-TOPO mammalian expression vector (FIG. 10) from their respective phagemid constructs. After transient overexpression of these scFvs as intrabodies in 293T cells, the interaction between endogenous PTP1B and these intrabodies in both H2O2-treated cells and cells was observed under reducing condition (treated with NAC and lysed with lysis buffer containing TCEP). […] All can be used in the methods and compositions described herein. Additional scFvs, such as some or all of the 137 selected individual scFvs from the library, can be similarly tested by in vitro screening and/or by binding assay in mammalian cells.
For the molecule B5, the “binding of intrabody to endogenous PTP1B-OX” value (“binding of intrabody” below) is listed as “bound weakly to PTP1B-OX”. As for B6, the “binding of intrabody” value is “bound weakly to PTP1B-OX”. B7: the “binding of intrabody” value is given as “bound weakly to PTP1B-OX”.
